A short description of this series: soluble on expression in E. coli; label from the status in PepcDB or PDB records.
For the sequence “MGSDKIHHHHHHMTQHPFISRVAVRNYKSIGYCDVNLRPLTYLVGHNGAGKSNFMDALHFVCDALSYSLDSALNERGGINEVRRRSGGHPTHFALRVEFVMQSGQAGRYGFVIGALKNGGYEVQREECVVAGIGKGPFFRIEKGKLRDSSETTFPSVTADRLALVAASGLTAFRPVFDALTAMGFYNLNPKLMRELQKPQDGRLLRPAGENIASVIGHLEKVAPAQMALIQEYLHSVAPMVHGVERKPIGPMETLEFRQDMAGSKHPWRFLAQNMSDGTLRALGVLSALLQGNVDYSPTLIGIEEPETALHPAASAALREALVRASETTQVLVTSHSPDLLDDHSIDADAVLAVVSEAGETKVAPLDEGSRQVMRDHLFSAGELLRMNQLAPDRASLEQQDKAASGDLFGETESV”, the “soluble on expression in E. coli” value is “not soluble”.
In the case of “MRSIFLLHFDYKTCEEEDFEDWNLADGKCLNGAKYMYKRRKQDARCLVKRTFKDMILHEIPCDSCTESDYECSSEFVRDAKGDCIPDYDQIALSDICDKANGETVSLEPLQLIKGDKCKKPMEIEAMNIPCEKILRESSNGKKIATIENKFDFEI”, the “soluble on expression in E. coli” value was “not soluble”.
Consider “MAAAREPELPQEAPATEPAPPPACRFFLEGRCRFGARCRQPHPGAPAPPGREAQPEAGAKKPPLRTAADVIQRIRWDPRLDPADFSVGYVDRFLGVREEPFSAFCWDQPLAALGPGVLAVPQHRVRFFRFHGRLVWDRASRTDLVFGSGSAAGRGPTILDAPNTEGAHGAEGAEWTLAGTGQEAQAAPKRGSTRPLCTGHQEPGVEEPGELEAAQERALGTAADLGTLAPRGRLAGVTEEALKPTAATRTTLLGGKEAQALGVPGGSAETTEAEWGPAAWPEDKRARLSVAAPCQPRPTHFVALMVTEPGLQAEVTKAQEYLVHVAPHCANFLVPSQNLHLTLALLRLAGAGEEAAAIGALRRALLAPGLNAPPRLSFRKLVLLGPHVLCAPPSPTLESMAQVLSQRLEAEGLSTLQSPGQLHPHLTVAKVPHGSQVHLPKLEFTLSQEVGCQPLQTLWLCRIGRTGGPFQPLAEIRLE”, for which the “soluble on expression in E. coli” value is listed as “soluble”.
The same measure for “MERKHHFVLVHNAYHGAWIWYKLKPLLESAGHRVTAVELAASGIDPRPIQAVETVDEYSKPLIETLKSLPENEEVILVGFSFGGINIALAADIFPAKIKVLVFLNAFLPDTTHVPSHVLDKYMEMPGGLGDCEFSSHETRNGTMSLLKMGPKFMKARLYQNCPIEDYELAKMLHRQGSFFTEDLSKKEKFSEEGYGSVQRVYVMSSEDKAIPCDFIRWMIDNFNVSKVYEIDGGDHMVMLSKPQKLFDSLSAIATDYM”: “soluble”; for “MAETIISLLSPTLDIKSPYYFNPDYLHQFNMHTNTAIDKLSEAKDNYAIWKLRFFDLLQFTNKTGFIDGTLPKPDPSSPYYEPWKQCNAIVLHWLSNTVTDTLQNHVLQAETVHKAWEDLRRIFVPCIDFKIYELRQRLATLRQGGDSVAEYFGKLSKAWLELKAYDPVQECKCGGCDCESEKRATEAREKEQRYAFLMGLNKEFDYVKMKVMHKKIPPSVYQAYEMVVYSEAMMKWKMGGRI”: “soluble”; for “MKIVVAKNIGFCFGVERAIRTVEELLDEGKKVVTDGEIVHNKQVMEQLTKKGLKVSSEMTDGEVFVVRAHGIPKDRLEELKKIFPEVVDLTCPIVSQLFKTAQRYAKERKVIVFGKEDHPEMVALRGYAPAIVTKVPFKLEEKKVVFLSQTTSSLEEYKEFVAAMIRMNEFEEAVFLNTICPVTVNREREVEELSKICDLSIVVGGKHSSNTGKLFRIASKHSKTIWIESPDELPADVVKYGTVCVFSGTSTPNSLIENVVRKLKEMEGKRDGTI”: “soluble”.
The same measure for “FSKTQRWAEPGEPICVVCGRYGEYICDKTDEDVCSLECKAKHLLQVKEKEEKS”: “soluble”.
The same measure for “MGSDKIHHHHHHMCSPTNFLYEPFSSDAVTQNYDQNLKCTKCGAYYSMACSLREQNVWTCLFCNQSNSNAELPLVPSNTYTLTSAKKEILSRRTIMIIDAICDPHELNYLVSILCNNYITRQQEPLSIITIQQSGHVILHNAVNHRRDAVFSINEFMTKYNLDKLNASYFEKKISEINQESYWFDKSTQGSLRKLLREICKIANKVNISSKRDKRCTGLALFVSSVLASQCSLSAYCHIVSFLNGPCTKGGGKVMSRERGESMRQNHHFESKSSQLQLSKSPTKFYKKMLEKFANQSLIYEFFIASLDQIGILEMSPLITSSMAVSQFDSFNDERFAMSFQKYLNLRDHNAIYNCHSKIMTAKNAIVVKDFPKYSLNPKNLSLPLEISLGHNSAEAPIQFQTTFENQTEKYIRIETLLLPKANRSFGAQNEIVFSMKKIASRIIDSFAYSSKHTKELMKQLFLLPNQIRGKDVDMVNLIQWCYHIYRSPILSVRNTSPDERYLFLHRIINASKDTCLSLCKPFIWSYSDLKHDWIVLDVPLTRAQILQDDKTTICVDGGSYLVLRRGKLLEKEGRELCCKLLNDLQRFPQPLYVETKTGGSQDRFLKSKIIPLDITDKETLGTEDMTFNEYFNLFTDLSGSK”: “not soluble”; for “MRPVFPLILSAVLFLSCFFGARQTEASASKRAIDANQIVNRMSLDEKLGQMLMPDFRNWQKEGESSPQALTKMNDEVASLVKKYQFGGIILFAENVKTTKQTVQLTDDYQKASPKIPLMLSIDQEGGIVTRLGEGTNFPGNMALGAARSRINAYQTGSIIGKELSALGINTDFSPVVDINNNPDNPVIGVRSFSSNRELTSRLGLYTMKGLQRQDIASALKHFPGHGDTDVDSHYGLPLVSHGQERLREVELYPFQKAIDAGADMVMTAHVQFPAFDDTTYKSKLDGSDILVPATLSKKVMTGLLRQEMGFNGVIVTDALNMKAIADHFGQEEAVVMAVKAGVDIALMPASVTSLKEEQKFARVIQALKEAVKNGDIPEQQINNSVERIISLKIKRGMYPARNSDSTKEKIAKAKKIVGSKQHLKAEKKLAEKAVTVLKNEQHTLPFKPKKGSRILIVAPYEEQTASIEQTIHDLIKRKKIKPVSLSKMNFASQVFKTEHEKQVKEADYIITGSYVVKNDPVVNDGVIDDTISDSSKWATVFPRAVMKAALQHNKPFVLMSLRNPYDAANFEEAKALIAVYGFKGYANGRYLQPNIPAGVMAIFGQAKPKGTLPVDIPSVTKPGNTLYPLGYGLNIKTGRPL”: “soluble”.
For the sequence “MGSDKIHHHHHHMMLSVSLAALRTFVEVARLRSFKDAAQSLGVTSGAVSQQVKLVENRLDVTLFERSGRNVKLTEQGLRLLGAIHVPFEQIREAVEDFDRRRSARNVVRIVTPIALASHWLVPRMDRFSRRHPDIELHIDTAHAEGVRRQLFDIAIQYGNETAPGVEAKRLPSSKLVVVGSPQLLEGASPIRDPSDCLKFPLLHDHDRLNWPAWFRANGSTHLPAASRKGLSFADESLLVAAAAAAQGLALVRDIHAENLLLHGRLKIAIETSMEPFQSYYLLTPSLVSQRPVVDACKNWILSEMARPVFLDLLSRP”, the “soluble on expression in E. coli” value was “not soluble”.
To “ANEMTYEQLARELLLVGPAPTNEDLKLRYLDVLIDNGLNPPGPPKRILIVGAGIAGLVAGDLLTRAGHDVTILEANANRVGGRIKTFHAKKGEPSPFADPAQYAEAGAMRLPSFHPLTLALIDKLGLKRRLFFNVDIDPQTGNQDAPVPPVFYKSFKDGKTWTNGAPSPEFKEPDKRNHTWIRTNREQVRRAQYATDPSSINEGFHLTGCETRLTVSDMVNQALEPVRDYYSVKQDDGTRVNKPFKEWLAGWADVVRDFDGYSMGRFLREYAEFSDEAVEAIGTIENMTSRLHLAFFHSFLGRSDIDPRATYWEIEGGSRMLPETLAKDLRDQIVMGQRMVRLEYYDPGRDGHHGELTGPGGPAVAIQTVPEGEPY” belongs “soluble”; to “MPLALGGTPFEKHVWARLMEIPLGQTRAYGDLAREMERPEVVRAVGRANGANQLAIVVPCHRILGADGSLTGYGGGLWRKQWLLRHEEKIGTETRMEETALEHHHHHH”, “not soluble”.
Take “HHHHHHENLYFQGSMDALQLANSAFAVDLFKQLSEKEPLGNVLFSPIALSTSLSLAQVGAKGDTANEIGQVLHFENVKDVPFGFQTVTSDVNKLSSFYSLKLIKRLYVDKSLNLSTEFISSTKRPYAKELETVDFKDKLEETKGQINNSIKDLTDGHFENILADNSVNDQTKILVVNAAYFVGKWMKKFSESETKESPFRVNKTDTKPVQMMNMEATFSMGNIDSINSKIIELPFQNKHLSMFILLPKDVEDESTGLEKIEKQLNSESLSQWTNPSTMANAKVKLSIPKFKVEKMIDPKASLENLGLKHIFSEDTSDFSGMSETKGVALSNVIHKVSLEITEDGGDSIEVPGARILQHKDELNADHPFIYIIRHNKTRNIIFFGKFSSP”: the “soluble on expression in E. coli” value was “soluble”.
To “MGSDKIHHHHHHMKTIKGPGIFLAQFIGTQAPFNTLAGIAQWAAGLGYKALQIPCNHPAIFDVERAAASQTYCDEVSGILAEHGLVISELSTHLEGQLVAVHPAYDAAFDAFAPAALHGDPQARQRWAVEKVRQAAVASGRLGLQAHATFSGALAWPFFYPWPPHNQPLLDEAFAELARRWRPLLDLFDEQGVDVCYEIHPGEDLHDGVTFERFLALVDNHPRCNMLYDPSHLHLQQMDYLAYIDIYHARIKAFHVKDAEFRRNGRNGVYGGYQPWQQRAGRFRSPGDGQIDFKGVFSKLTEYDFAGWAVLEWECCLKDSETGAREGSEFIRRHIIPVAGRAFDDFAAGGRE” belongs “not soluble”; to “MVEERIINLSHEIKNFVYPNDPEFIVKTKKNGKYSVSELNMGVHTGTHIDYPMHVGLTNEKFENVFGKGYCVSLENMNDFFKNAPKNLEILLIKTDFSKYWEDPEYFEKECDIENHVEKLISMNLKAVGIDCCSIGNFSVHEKLLSSKIKIIENMKNLEILENKTFKFFGFPLNIEKIDGSPINAVAFLLEHHHHHH”, “not soluble”; to “MENDMKSLSAAAQACVKKMRDAKVNEACIRTFIAQHVMVSKGETGSIPDSAIMPVDSLDALDSLTIECDNAVLQSTVVLKLNGGLGTGMGLCDAKTLLEVKDGKTFLDFTALQVQYLRQHCSEHLRFMLMDSFNTSASTKSFLKARYPWLYQVFDSEVELMQNQVPKILQDTLEPAAWAENPAYEWAPPGHGDIYTALYGSGKLQELVEQGYRYMFVSNGDNLGATIDKRVLAYMEKEKIDFLMEVCRRTESDKKGGHLARQTVYVKGKDGQPDAEKRVLLLRESAQCPKADMESFQDINKYSFFNTNNLWIRLPVLLETMQEHGGTLPLPVIRNEKTVDSSNSASPKVYQLETAMGAAIAMFESASAIVVPRSRFAPVKTCADLLALRSDAYVVTDDFRLVLDDRCHGHPPVVDLDSAHYKMMNGFEKLVQHGVPSLVECKRVTVKGLVQFGAGNVLTGTVTIENTDSASAFVIPDGAKLNDTTASPQQSTNKMRPLEHHHHHH”, “soluble”.
To “MSLKVFLKKGKEKKVKHFYPWVFRDEVEKIEGEGIVAELYDSEGNFLALGTYSPYSRIAFRVLSYEREEVNEEFFKRRLRESELLRRDIPSNAYRLAFSESDLLSGLIIDRYGDAFVIQVRSYPMEILKEKVLKTLVEEFNPAFVYERSDFKGRREEGLKEFKGLLYGKLENPLIIEEREFKFLVDVVEGLKTGFYLDQRDNREYVRNLVKEGDRVLDLFCYSGGFSVYCANRGAKVVGVDINKRAVELARENAKLNSVKADFVLGNAFDFIQESKEEWDLIIADPPAIAKTKKEKESILWAIWKLAYYSFQKLKKGGSLFICSCTYQISSEEMIRQVRLASTDVKRRIIIKSLNLQPIDHPYLPTFPESLYLKCLHAIVIDEGHHHHHH” belongs “soluble”; to “TMSHGFGVMAGINLTKNIGVQAEVNYYQINQKYADGNLNRDLTINYFNIPVLLSLNTNKAAPVNLNLVAGPQFGINAGSKFETSGNGNTDSTTAVVALRKGDVGVAYGAGLEFALNKSHSVRLDLGFRGFYGLVNMDSSTNGQGTYNVIVSASRKTYGGYAGITWMF”, “not soluble”.
